Measurements as given in patent US20130344055A1, “ANTIMICROBIAL AGENTS” (priority 2010, published 2013).

B1: EL188: Pseudomonas aeruginosa bacteriophage endolysin EL188 (phage EL) (protein)
chain: MNFRTKNGYRDLQALVKELGLYTGQIDGVWGKGTSSSTETLLRGYAEVVGKNTGGIGLPTTSDASGYNVITALQRNLAFLGLYSLTVDGIWGNGTLSGLDKAFEVYKERYRTPTYDIAWSGKVSPAFTAKVKDWCGVHVPNHRAPHWLMACMAFETGQTFSPSIKNAAGSEAYGLIQFMSPAANDLNVPLSVIRSMDQLTQLDLVFKYFEMWMKRGKRYTQLEDFYLTIFHPASVGKKADEVLFLQGSKAYLQNKGFDVDKDGKITLGEISSTLYTTYYKGLLPENRHVISY
modifications: Pseudomonas aeruginosa phage EL
B2: KZ144-PK: KZ144 fusion variant with one peptide stretch, PK (protein)
chain: MKVLRKGDRGDEVCQLQTLLNLCGYDVGKPDGIFGNNTFNQVVKFQKDNCLDSDGIVGKNTWAELFSKYSPPIPYKTIPMPTANKSRAAATPVMNAVENATGVRSQLLLTFASIESAFDYEIKAKTSSATGWFQFLTGTWKTMIENYGMKYGVLTDPTGALRKDPRISALMGAELIKENMNILRPVLKREPTDTDLYLAHFFGPGAARRFLTTGQNELAATHFPKEAQANPSIFYNKDGSPKTIQEVYNLMDGKVAAHRKKRKKRKKRK
B3: Cpl1: endolysin Cpl-1 (protein)
chain: MVKKNDLFVDVSSHNGYDITGILEQMGTTNTIIKISESTTYLNPCLSAQVEQSNPIGFYHFARFGGDVAEAEREAQFFLDNVPMQVKYLVLDYEDDPSGDAQANTNACLRFMQMIADAGYKPIYYSYKPFTHDNVDYQQILAQFPNSLWIAGYGLNDGTANFEYFPSMDGIRWWQYSSNPFDKNIVLLDDEEDDKPKTAGTWKQDSKGWWFRRNNGSFPYNKWEKIGGVWYYFDSKGYCLTSEWLKDNEKWYYLKDNGAMATGWVLVGSEWYYMDDSGAMVTGWVKYKNNWYYMTNERGNMVSNEFIKSGKGWYFMNTNGELADNPSFTKEPDGLITVA
modifications: Streptococcus pneumoniae Phage Cpl-1
B4: Cpl1-Pseudin1: Cpl1 fusion variant with one peptide stretch, Pseudin1 (protein)
chain: MVKKNDLFVDVSSHNGYDITGILEQMGTTNTIIKISESTTYLNPCLSAQVEQSNPIGFYHFARFGGDVAEAEREAQFFLDNVPMQVKYLVLDYEDDPSGDAQANTNACLRFMQMIADAGYKPIYYSYKPFTHDNVDYQQILAQFPNSLWIAGYGLNDGTANFEYFPSMDGIRWWQYSSNPFDKNIVLLDDEEDDKPKTAGTWKQDSKGWWFRRNNGSFPYNKWEKIGGVWYYFDSKGYCLTSEWLKDNEKWYYLKDNGAMATGWVLVGSEWYYMDDSGAMVTGWVKYKNNWYYMTNERGNMVSNEFIKSGKGWYFMNTNGELADNPSFTKEPDGLITVAGLNTLKKVFQGLHEAIKLINNHVQ
B5: KZ144: Pseudomonas aeruginosa bacteriophage endolysin KZ144 (phage phiKZ) (protein)
chain: KVLRKGDRGDEVCQLQTLLNLCGYDVGKPDGIFGNNTFNQVVKFQKDNCLDSDGIVGKNTWAELFSKYSPPIPYKTIPMPTANKSRAAATPVMNAVENATGVRSQLLLTFASIESAFDYEIKAKTSSATGWFQFLTGTWKTMIENYGMKYGVLTDPTGALRKDPRISALMGAELIKENMNILRPVLKREPTDTDLYLAHFFGPGAARRFLTTGQNELAATHFPKEAQANPSIFYNKDGSPKTIQEVYNLMDGKVAAHRK
modifications: Pseudomonas aeruginosa phage KZ
B6: PK2-LysK: LysK fusion variant with one peptide stretch, PK2 (protein)
chain: MKRKKRKKRKKRKKRKKRKAKTQAEINKRLDAYAKGTVDSPYRVKKATSYDPSFGVMEAGAIDADGYYHAQCQDLITDYVLWLTDNKVRTWGNAKDQIKQSYGTGFKIHENKPSTVPKKGWIAVFTSGSYEQWGHIGIVYDGGNTSTFTILEQNWNGYANKKPTKRVDNYYGLTHFIEIPVKAGTTVKKETAKKSASKTPAPKKKATLKVSKNHINYTMDKRGKKPEGMVIHNDAGRSSGQQYENSLANAGYARYANGIAHYYGSEGYVWEAIDAKNQIAWHTGDGTGANSGNFRFAGIEVCQSMSASDAQFLKNEQAVFQFTAEKFKEWGLTPNRKTVRLHMEFVPTACPHRSMVLHTGFNPVTQGRPSQAIMNKLKDYFIKQIKNYMDKGTSSSTVVKDGKTSSASTPATRPVTGSWKKNQYGTWYKPENATFVNGNQPIVTRIGSPFLNAPVGGNLPAGATIVYDEVCIQAGHIWIGYNAYNGNRVYCPVRTCQGVPPNQIPGVAWGVFK
B7: PK2-Cecropin A (A. aegyptii)-LysK: PK2, then Cecropin A (A. aegyptii), N-terminally fused to LysK (protein)
chain: MKRKKRKKRKKRKKRKKRKGGLKKLGKKLEGAGKRVFNAAEKALPVVAGAKALRKAKTQAEINKRLDAYAKGTVDSPYRVKKATSYDPSFGVMEAGAIDADGYYHAQCQDLITDYVLWLTDNKVRTWGNAKDQIKQSYGTGFKIHENKPSTVPKKGWIAVFTSGSYEQWGHIGIVYDGGNTSTFTILEQNWNGYANKKPTKRVDNYYGLTHFIEIPVKAGTTVKKETAKKSASKTPAPKKKATLKVSKNHINYTMDKRGKKPEGMVIHNDAGRSSGQQYENSLANAGYARYANGIAHYYGSEGYVWEAIDAKNQIAWHTGDGTGANSGNFRFAGIEVCQSMSASDAQFLKNEQAVFQFTAEKFKEWGLTPNRKTVRLHMEFVPTACPHRSMVLHTGFNPVTQGRPSQAIMNKLKDYFIKQIKNYMDKGTSSSTVVKDGKTSSASTPATRPVTGSWKKNQYGTWYKPENATFVNGNQPIVTRIGSPFLNAPVGGNLPAGATIVYDEVCIQAGHIWIGYNAYNGNRVYCPVRTCQGVPPNQIPGVAWGVFK
B8: Cpl1-Indolicidin: Cpl1 fusion variant with one peptide stretch, Indolicidin (protein)
chain: MVKKNDLFVDVSSHNGYDITGILEQMGTTNTIIKISESTTYLNPCLSAQVEQSNPIGFYHFARFGGDVAEAEREAQFFLDNVPMQVKYLVLDYEDDPSGDAQANTNACLRFMQMIADAGYKPIYYSYKPFTHDNVDYQQILAQFPNSLWIAGYGLNDGTANFEYFPSMDGIRWWQYSSNPFDKNIVLLDDEEDDKPKTAGTWKQDSKGWWFRRNNGSFPYNKWEKIGGVWYYFDSKGYCLTSEWLKDNEKWYYLKDNGAMATGWVLVGSEWYYMDDSGAMVTGWVKYKNNWYYMTNERGNMVSNEFIKSGKGWYFMNTNGELADNPSFTKEPDGLITVAILPWKWPWWPWRR
B9: Cecropin A (A. aegyptii)-LysK: LysK fusion variant with one peptide stretch, Cecropin A (A. aegyptii) (protein)
chain: MGGLKKLGKKLEGAGKRVFNAAEKALPVVAGAKALRKAKTQAEINKRLDAYAKGTVDSPYRVKKATSYDPSFGVMEAGAIDADGYYHAQCQDLITDYVLWLTDNKVRTWGNAKDQIKQSYGTGFKIHENKPSTVPKKGWIAVFTSGSYEQWGHIGIVYDGGNTSTFTILEQNWNGYANKKPTKRVDNYYGLTHFIEIPVKAGTTVKKETAKKSASKTPAPKKKATLKVSKNHINYTMDKRGKKPEGMVIHNDAGRSSGQQYENSLANAGYARYANGIAHYYGSEGYVWEAIDAKNQIAWHTGDGTGANSGNFRFAGIEVCQSMSASDAQFLKNEQAVFQFTAEKFKEWGLTPNRKTVRLHMEFVPTACPHRSMVLHTGFNPVTQGRPSQAIMNKLKDYFIKQIKNYMDKGTSSSTVVKDGKTSSASTPATRPVTGSWKKNQYGTWYKPENATFVNGNQPIVTRIGSPFLNAPVGGNLPAGATIVYDEVCIQAGHIWIGYNAYNGNRVYCPVRTCQGVPPNQIPGVAWGVFK
B10: EL188-PK: EL188 fusion variant with one peptide stretch, PK (protein)
chain: MNFRTKNGYRDLQALVKELGLYTGQIDGVWGKGTSSSTETLLRGYAEVVGKNTGGIGLPTTSDASGYNVITALQRNLAFLGLYSLTVDGIWGNGTLSGDKAFEVYKERYRTPTYDIAWSGKVSPAFTAKVKDWCGVHVPNHRAPHWLMACMAFETGQTFSPSIKNAAGSEAYGLIQFMSPAANDLNVPLSVIRSMDQLTQLDLVFKYFEMWMKRGKRYTQLEDFYLTIFHPASVGKKADEVLFLQGSKAYLQNKGFDVDKDGKITLGEISSTLYTTYYKGLLPENRHVISYKRKKRKKRK
B11: Cpl1-Pseudin1-Indolicidin: Cpl1 with Pseudin1 C-terminal of the enzyme, followed by Indolicidin (protein)
chain: MVKKNDLFVDVSSHNGYDITGILEQMGTTNTIIKISESTTYLNPCLSAQVEQSNPIGFYHFARFGGDVAEAEREAQFFLDNVPMQVKYLVLDYEDDPSGDAQANTNACLRFMQMIADAGYKPIYYSYKPFTHDNVDYQQILAQFPNSLWIAGYGLNDGTANFEYFPSMDGIRWWQYSSNPFDKNIVLLDDEEDDKPKTAGTWKQDSKGWWFRRNNGSFPYNKWEKIGGVWYYFDSKGYCLTSEWLKDNEKWYYLKDNGAMATGWVLVGSEWYYMDDSGAMVTGWVKYKNNWYYMTNERGNMVSNEFIKSGKGWYFMNTNGELADNPSFTKEPDGLITVAGLNTLKKVFQGLHEAIKLINNHVQILPWKWPWWPWRR

How the values were obtained:
Format in all cases: cell-based
Pseudomonas bacteria = test: In vitro antibacterial activity of KZ144 and EL188 fusion variants; settings: with EDTA 0.5 mM; 10^6 cells/ml; 30 minutes at RT
Method: Exponential growing Gram-negative bacterial cells (OD600 nm=0.6) were 100-fold diluted to a final density of about 10^6 cells/ml in 5 mM HEPES pH 7.4 and incubated for 30 minutes at room temperature without shaking with the different modified OBPgpLYS variants (in Elution Buffer in an end concentration of 1500 nM). After incubation cell suspensions and as a control untreated bacterial cells without any added modified OBPgpLYS variant were diluted three times (respectively 10^5-10^4-10^3 cells/ml) in 1× concentrated PBS buffer and 100 μl of each dilution was plated out on LB-medium. […] All samples were replicated in threefold. Averages +/− standard deviations are represented.
The purification of the fusion proteins and the antimicrobial activity assay was performed as described in Example 1.

Streptococcus bacteria = test: In vitro antibacterial activity of Cpl1 fusion variants; settings: with EDTA 0.5 mM; 10^6 cells/ml; 30 minutes at RT
Staphylococcus bacteria = test: In vitro antibacterial activity of Lysostaphin and LysK fusion variants; settings: LysK variants; with EDTA 0.5 mM; 10^6 cells/ml; 30 minutes at RT

| Molecule | Average log reduction, Pseudomonas (Pseudomonas bacteria) | Average log reduction, Streptococcus (Streptococcus bacteria) | further results |
| --- | --- | --- | --- |
| B1 | +/− (+/−: <1 log) | – | – |
| B2 | + (+: 1 log) | – | – |
| B3 | – | + (+: 1 log) | – |
| B4 | – | ++ (++: 2-3 log) | – |
| B5 | +/− (+/−: <1 log) | – | – |
| B6 | – | – | Average log reduction, Staphylococcus (Staphylococcus bacteria): ++ (++: 2-3 log) |
| B7 | – | – | Average log reduction, Staphylococcus (Staphylococcus bacteria): +++ (+++: 4 or more logs) |
| B8 | – | ++ (++: 2-3 log) | – |
| B9 | – | – | Average log reduction, Staphylococcus (Staphylococcus bacteria): ++ (++: 2-3 log) |
| B10 | + (+: 1 log) | – | – |
| B11 | – | +++ (+++: 4 or more logs) | – |
